Source: a protein production outcome set (Wang et al. 2014)

Assay: label from the status in PepcDB records

| Sequence | protein production |
| --- | --- |
| MTEGRVIDVDVSSEMESSFLEYAVSVIHSRALPDARDGLKPVQRRIVYQMGDMGLRPERGHVKSSRIVGDVMGKLHPHGDTAIYDALVRLSQSFIMRVPLVDGHGNFGSLDDGPAAPRYTEARLTSASMQMIAGLDEDVVDFVGNYDNTLTQPEVLPSAFPNLLINGTSGIAVGMATNMAPHNPGEVIAACCHLIRNPEAGLAELMRFIPGPDLPTGGRIIGLDGVREAYETGRGTFRTRATVSIENINARRKGIVVTELPYLVGPEKVVSKVKDAVGAKKLTGIASIDDYSDRKNGMRLVIGIKNGFNPEAVLAELYRQTPLEESFSMNNVCLVDGQPRTLGLRELLTVYLAHRIDVIRRRTVFQLRKAKDRLHLVEGLLIAILDIDEVIQLIRSSDDAATARTRLMDVFELSELQATYILDLQLRRLTKFSRIELEAERDELRKKIAYLEDLLADEAKLRELVATELEATAEAIGSPRRTVLIEGSMKELSAKGKKAQADLKIADAPCRVLLSTSGRIARTADASPLQRVGKRSSHDALRSEIVSTTQGKVGAVTSTGRLHMVDVVDLPALPPAATRPNVAGGVKIADYVTLEKNETVLGLIDLDREFVLGTAGGVVKRVSVAARPNKSEWEAITLKGKDSVIGVAQPKDIDESLAVFVTSNAQLLAFDASGLRAQGWNASGVAGMKVAADARALFFGMTPKAAKTDEEGDADTNIGTFAVVTVASGENFYGAPSSSIKVSDFSEYPTKGRATSGVRAHKFLKGETELSLAWVGDSPQAAAQAGGARTLPAEMSRRDATGSPLESKIDVIGTVPRLGDAEAALSGGGAGAGDSGAAGTDASGDGGAASGGGSSSSAATRTQGLATNFGELDLDLDGGPDLDEAKEEIARSKIDSDDAVIVSHDDDDDDDTALF | failed |
| MTEIERKFLVATFPDGELHAVPLRQGYLTTPTDSIELRLRQQGTEYFMTLKSEGGLSRQEYEIQIDVTQFEMLWPATEGRRVEKTRYSGKLPDGQLFELDVFAGHLSPLMLVEVEFLSEDAAQAFIPPPWFGEEVTEDKRYKNKALALSIP | not failed |
| MTEKKIDFKKEEKKFYAPKRKPERIFVPEMNFLMVDGKGDPDGEEYQKAVQSLYAIAYTIKMSKMGETRLDGYSDFVVPPLEGFWWSEGKFDLKDRDAWLWTSILRQPDFVTEEVLEWAKEVARKKKPDV | failed |
| MTEKRRRLPRPEKAILWPASYLHHRSVTQQLPIMSTPHTDFFGLTIPFMQLLGVVPEHSGNGTARTRLPARADLVNSRGDIHGGTLMSVLDFTLGAAIRGDTPEVGVATIDMNTSFMSPGRGDLVIETRCLRRGASIAFCEGEIRDSAGELVAKATATFKIIQRRPGGD | failed |
| MTENTSSFPRSSGELHEFTRADVWGGFTQLLPLSFFVVVFGLAFGVAAVQTGLDAFPTLLMSTLVFAGASQFATLEMWGAEVPLVPVLITVFAINARHLLMGATLYPWLRQLPPHKRYGIMLLASDANWAMAMNAFGKKEPGFGLLVGGGLALWGFWIVGTWMGIYFGGAIKDPVSLGLDMVMGCFLLSMVAGGPKNLRIFAIWGMAAASSLMAYWYLPENSHVVVGAIAGGILGACWKEKKA | failed |
| MTEPCRIIGVLDNGAEGLTPQALAYLHAADLVIGAGRTLALFEAHLAEGAECRDLGGRLAQVPDWIAEARRNGKRVAVLATGDPLCHGIAGYLGNKLGREALEILPNVSTIQLACARLGLPWQDMAIGSVHSRDAGDWTPGAGPGHGLYGLLQKLRQADLMGVFTSPENGPDRIARMLRAEGLDEEFEMAIAERLLQADERIHGWLGIAEAAGQCFADPNVVLLRRRPCEREALFGLPDTRFRQRAPDKGLITKREVRAVSLARLALRPDSIVWDIGAGSGAVGLEAARLCPLGHVYAIEKNVEDFAIALSNRESLRVSNYTLVQAKAPRELDGWPDPHGVFIGGSGGELRELIQICLRRLRTGGWLVMNFATLENLAAAVDALKASGASWDVTQLQAARSRPILDMHRLQAENPVWIVCAQRENNE | failed |
| MTEQDIYKLLADGERVTLECKKAQNGVPNSLWETYSAFANTNGGILLLGVYENVAEKDSLMRFTITGVEDADKIRKDLWNTINSREKVNVNLLHDEDVQTISVNGKEVIAINVPRADYNLRPVYINNNLMRGTYRRNHEGDYHCTEQMIKMMVRDAYEDGNDRMFLEYYTMDDIDIPTLEGYRVMFKTNNPEHIWNSLDHKEFLMQLGGYVVNRKDGTEGLTIAGLLMFGKGLPVRERFDYLRMDYIDKSNLIGDQRYSDRLTYDGTWENNLFNFIRMVVPRLTRDIPRPFQMDGIIRKDDTPQHKAVREAFTNMIIHADLMLNGLLRVEKYDDRFVLSNPGLLKLPVEQIYAGGESKARNQRMQHMLRMIGYGENLGSGFPLILSAWNEKHWLKPELVEQPELMQVKLILHIENRVYVTKDVTKDVTKELTERQQIILEFMQADGTITISEMSQKTNVTERTIKRDIESLTEKGILSREGGRKEGRWVIRKILEHHHHHH | not failed |
| MTERFDCHHCNESLFGKKYILREESPYCVVCFETLFANTCEECGKPIGCDCKDLSYKDRHWHEACFHCSQCRNSLVDKPFAAKEDQLLCTDCYSNEYSSKCQECKKTIMPGTRKMEYKGSSWHETCFICHRCQQPIGTKSFIPKDNQNFCVPCYEKQHAMQCVQCKKPITTGGVTYREQPWHKECFVCTACRKQLSGQRFTARDDFAYCLNCFCDLYAKKCAGCTNPISGLGGTKYISFEERQWHNDCFNCKKCSLSLVGRGFLTERDDILCPDCGKDI | failed |
| MTEVNLNIYSPRWGRHETYIVELHKDYMEISMGAVTIKATYSENQDPEWSEETLQDIMNNDSVYPPEITQNLFQHAWLEWRKGALDNDEVTRELELVAQWVNKVTEAKPNSDFWRKYF | not failed |
| MTFASPDDVIRRFDEQNYLLDTGTASAIYLAVTLGRPLLLEGEPGVGKTTAAKTLAVVLDTTLIRLQCYEGLTANEALYDWNYQRQLLSIRLAEARGKGISDISEADLYTEAYLVDRPILRCVRHRGPTPPVLLIDEIDRADDEFEALLLEFLGESAVTVPELGTFLAECPPIAVLTSNRSRDLHDALRRRCLYHWIDYPEPDRAAAIVRRTVPGATAPLIENATQFVCTARDLDLDKPPGVAETIDWVAALVALGVADLTAADSSPALASLGALAKTPDDRTQIRDAYQAFTECSHA | failed |
| MTFFIFLLACSAAAATGIIFKPGAWYESLQKPAFTPPNWAFPVAWTTIYLLLAWAGYRLTLLPGSQTVLALWAAQIALNTLWTPVFFGANRIAAAMVILALLWIVVATMIVMALQLDIITGLILFPYLVWLSVAAALNFSILRHNR | failed |
| MTFPPPDPAVAPPAEPASRAPHGRPATSGQSASATTVGSGAPLPASSALASTPSQAGPTGRKRPGQSTVTARTGAPNLPDPLGDNVVGERAVVPPIQQGKSRTALTNELNAEPVAGTVPAAPGGDLFIDAVLAQSYRHFFGPTSQPAVPPRQQVISITRLMEKLAYLKPADQALVREAFQFSDEAHLGQYRQSGEPYITHPVAVAELCADWKLDVQSIMAALLHDVMEDQGITKSELAEKFGPKVSELVDGLTKLDKLEFQSREQAQAESFRKMLLAMARDVRVILVKLADRTHNMRTLDFVPPEKRRRIALETMEIYAPIAHRLGLNTIYRELQELSFKVGSPFRYATLEKAVKAARGNRREVVKRILEAAQSALAGAGIVAELSGREKTLYSIYRKMHDKQLSFSQVLDVYGFRVVVETQMHCYMAMGALHGLYKPMPGKFKDYIAIPKINGYQSLHTTLVGPFGTPVEFQIRTRGMHQIAEAGVAAHWMYKHQADHANDIQQQAHQWLQSLLDIQSQTGDSQEFLEHVKIDLFPDAVYVFTPKGHIRALPRGATALDFAYAVHSDLGNQCVAVKINNELLPLRTELKSGDIVEVVTAPYSKPNPSWLAFVRTGKARAAIRHYLKTTKLDEAIQLGERLLEQSTRQLGIELKAVPQSVWDRMIQWTGNKLKEDIFADLALGRRVPAVVARRMEILLQELSGDVDSALLAAVQTFAGEDAPAVPITGDEGMSMIFSACCRPIPGDSIVGYLGKGEGLQIHVQDCKVAKRLHSKDPEHWIEVMWAKKTTRAFDVSIKIMVRNVKGIVARVAADLTSADANVAHVAMEPQQGGHQEATYMQFVIQVQNRLHLANVMRALRRNPDVIRIFRDRNDG | failed |
| MTFPVIGVVGGGQLARMMAPPATALGFELRVLAEGEDVSAVAAVATAPIGDYKDLDALLEFSKGLDVMTFDHEHVPTQHLQALLDAGVNVQPGPDALVNAQDKLVMRAAIDRLGLPNPEWSAVNTVDELVAFGERIGWPVVLKTPRGGYDGKGVRMVDSADDALETADWFQAMSPLLAEAKVEFSRELSALVARSPSGESRAWPVVHTIQVDGVCDEVIAPAQNISVEVAAAAEEAALRIANELGVTGVMAAELFETPGVGVGFLINELAMRPHNTGHWTQDGSITSQFEQHLRAVLDLPLGATDALAPVVVMKNFLGGDNQDLFKAFPMALAFEPAAKVHSYGKSVRPGRKIGHVNLVGSSVSDVDSVRQRATAVANIIRDGRKPEQTTLEETA | failed |
| MTFRDLLSVSFEGPRPDSSAGGSSAGGGGGSAGGAAPSEGPAVGGVPGGAGGGGGVVGAGSGEDNRSSAGEPGSAGAGGDVNGTAAVGGLVVSAQGVGVGVFLAAFILMAVAGNLLVILSVACNRHLQTVTNYFIVNLAVADLLLSATVLPFSATMEVLGFWAFGRAFCDVWAAVDVLCCTASILSLCTISVDRYVGVRHSLKYPAIMTERKAAAILALLWVVALVVSVGPLLGWKEPVPPDERFCGITEEAGYAVFSSVCSFYLPMAVIVVMYCRVYVVARSTTRSLEAGVKRERGKASEVVLRIHCRGAATGADGAHGMRSAKGHTFRSSLSVRLLKFSREKKAAKTLAIVVGVFVLCWFPFFFVLPLGSLFPQLKPSEGVFKVIFWLGYFNSCVNPLIYPCSSREFKRAFLRLLRCQCRRRRRRRPLWRVYGHHWRASTSGLRQDCAPSSGDAPPGAPLALTALPDPDPEPPGTPEMQAPVASRRKPPSAFREWRLLGPFRRPTTQLRAKVSSLSHKIRAGGAQRAEAACAQRSEVEAVSLGVPHEVAEGATCQAYELADYSNLRETDI | failed |
| MTFSAFFQTIDDYSFRPMIPSFIRLLRFTGLFIAIFAPALYIAMISFHYEVIPLKLLLTIGESRAKIPFPPILEALLMELVLEMLREAAVRLPGPVGQTIGVVGGIVIGQAAVQAGIVSNVMVIVVSITAVASFIIPNLEMSAGIRLLRFPMMIIASLFGVIGIMVGMAIIIIHILSMESLGVPYGSPFSPLFASDLKDILIRLPWKIMKKRPLSLNLKQENRQSDIEGTEEDK | failed |
| MTGADHAHTRRRPLTGPLVKSLVFVVVTALATTVLGLSVAGTSVDSGTGTSTYKALFTDVTGLVDGDSVRISGVTVGEVTDVRVVDRRTAQVTFTVRDDRTLPRSTTAAVKYLNMVGQRYVSLGRGSGDLAGTLPEGGTVPLDRTTPALDLTLLFNGFKPLFEGLSPKDVNDLAGSIVQVLQGEGATVDSLIRHVGSLGTTVAAKDKVIGEVVENLTTVLDTLNDREDGFDDLVVTLQKLVTGFNQDRKPLGEAVAAMGDLTTVTAGLLEDGRAPLKKDVQELGRLSAGLGEHTPQIEDFLEKSPAKMTALARLSSYGSWFNLYLCEARVSGVSTSDGSKPPTGIAITESRCRGLEHHHHHH | failed |
| MTGAVETESMKTVRIREKIKKFLGDRPRNTAEILEHINSTMRHGTTSQQLGNVLSKDKDIVKVGYIKRSGILSGGYDICEWATRNWVAEHCPEWTEGQPIILNEEGDFTLGPLPE | not failed |
| MTGEWKECKLREIASEIKSGGTPSTKHQEYYGGIIPWLNTKEIHFNRIRDTDIKITEGGLNNSSAKWVKENSIIVAMYGATAGKIAINKIPLTTNQACCNITPDSEKADYNFVYYNLCHRYDELVNLSCGAAQQNLNVGLITNLDIILPPITEQCAIASVLSSLDDKIDLLHRQNKTLEAMAETLFRQWFVEEADEDWEEGFLPDEFDFTMGQSPPGTSYNQEGVGKPMFQGNADFGFRFPEERVYTTEPTRLAYPHDTLISVRAPVGAQNMAKVECCIGRGVSAFRYKANNDFYTYTYFKLRSLMDEIKKFNDEGTVFGSISKTDFLQMGIAIPPEDIIEKFEIHAKPLNDKVIENCIQIKLLEVMRDTLLPKLMSGEVRVEG | failed |
